B1: minF1; the commonest letter at each place (parent)
chain: GAGACCGCAACTGAAAAGTTGTTATCAGAAATGGATGGGTTGAATTTCTGCACGTAGAAGCAAAAGGC

Variants of: B1
Assay: fraction ligated after 30 min (ligated reads / total reads); higher = more ligase activity
Conditions: with F1*subA RNA substrate (template-directed ligation), 42 °C
Procedure, shortened: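 Templates from an oligo pool encoding minimized ligase ribozyme variants were amplified by PCR, transcribed with T7, and purified on gels. Gel electrophoresis separated ligated from unligated RNAs, which were then reverse transcribed using barcoded primers and sequenced on a MiSeq, keeping core bases with quality ≥30. For each variant, fraction ligated equals ligated reads divided by total reads.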

Row | Variant | fraction ligated
1 | GAGACCGCAACTGAAAAGTTGTTTTCAGAAATGGATGGGTTCAATTTCTGCACGTAGAAGCAAAAGGC [A24T G42C] | 0.00191
2 | GAGACCGCAACTGAAAAGTTGTTTTCAGAAATGGATGGGTTAAATTTCTGCACGTAGAAGCAAAAGGC [A24T G42A] | 0.00238
3 | GAGACCGCAACTGAAAAGTTGTTTTCAGAAATGGATGGGTTTAATTTCTGCACGTAGAAGCAAAAGGC [A24T G42T] | 0.00308
4 | GAGACCGCAACTGAAAAGTTGTTTTCAGAAATGGATAGGTTGAATTTCTGCACGTAGAAGCAAAAGGC [A24T G37A] | 0.00164
5 | GAGACCGCAACTGAAAAGTTGTTTTCAGAAATGGATTGGTTGAATTTCTGCACGTAGAAGCAAAAGGC [A24T G37T] | 0.00399
6 | GAGACCGCAACTGAAAAGTTGTTTTCAGAAATGGATCGGTTGAATTTCTGCACGTAGAAGCAAAAGGC [A24T G37C] | 0.00436
7 | GAGACCGCAACTGAAAAGTTGTTTTCAGAAATGGATGGGTTGAGTTTCTGCACGTAGAAGCAAAAGGC [A24T A44G] | 0.0057
8 | GAGACCGCAACTGAAAAGTTGTTTTCAGAAATGGATGGGTTGATTTTCTGCACGTAGAAGCAAAAGGC [A24T A44T] | 0.00772
9 | GAGACCGCAACTGAAAAGTTGTTTTCAGAAATGGATGGGTTGACTTTCTGCACGTAGAAGCAAAAGGC [A24T A44C] | 0.00276
10 | GAGACCGCAACTGAAAAGTTGTTTTCAGAAATGGTTGGGTTGAATTTCTGCACGTAGAAGCAAAAGGC [A24T A35T] | 0.00183
11 | GAGACCGCAACTGAAAAGTTGTTTTCAGAAATGGGTGGGTTGAATTTCTGCACGTAGAAGCAAAAGGC [A24T A35G] | 0.00268
12 | GAGACCGCAACTGAAAAGTTGTTTTCAGAAATGGCTGGGTTGAATTTCTGCACGTAGAAGCAAAAGGC [A24T A35C] | 0.0024
13 | GAGACCGCAACTGAAAAGTTGTTTTCAGAAACGGATGGGTTGAATTTCTGCACGTAGAAGCAAAAGGC [A24T T32C] | 0.000877
14 | GAGACCGCAACTGAAAAGTTGTTTTCAGAAAAGGATGGGTTGAATTTCTGCACGTAGAAGCAAAAGGC [A24T T32A] | 0.00395
15 | GAGACCGCAACTGAAAAGTTGTTTGCAGAAATGGATGGGTTGAATTTCTGCACGTAGAAGCAAAAGGC [A24T T25G] | 0.00899
16 | GAGACCGCAACTGAAAAGTTGTTTACAGAAATGGATGGGTTGAATTTCTGCACGTAGAAGCAAAAGGC [A24T T25A] | 0.0063
17 | GAGACCGCAACTGAAAAGTTGTTTCCAGAAATGGATGGGTTGAATTTCTGCACGTAGAAGCAAAAGGC [A24T T25C] | 0.0313
18 | GAGACCGCAACTGAAAAGTTGTTTTCAGAAATGGATGGGTTGCATTTCTGCACGTAGAAGCAAAAGGC [A24T A43C] | 0.00315
19 | GAGACCGCAACTGAAAAGTTGTTTTCAGAAATGGATGGGTTGTATTTCTGCACGTAGAAGCAAAAGGC [A24T A43T] | 0.00827
20 | GAGACCGCAACTGAAAAGTTGTTTTCAGAAATGGATGGGTTGGATTTCTGCACGTAGAAGCAAAAGGC [A24T A43G] | 0.00117

Row | Variant | fraction ligated
21 | GAGACCGCAACTGAAAAGTTGTTTTCAGACATGGATGGGTTGAATTTCTGCACGTAGAAGCAAAAGGC [A24T A30C] | 0.00942
22 | GAGACCGCAACTGAAAAGTTGTTTTCAGATATGGATGGGTTGAATTTCTGCACGTAGAAGCAAAAGGC [A24T A30T] | 0.00805
23 | GAGACCGCAACTGAAAAGTTGTTTTCAGAGATGGATGGGTTGAATTTCTGCACGTAGAAGCAAAAGGC [A24T A30G] | 0.0104
24 | GAGACCGCAACTGAAAAGTTGTTTTAAGAAATGGATGGGTTGAATTTCTGCACGTAGAAGCAAAAGGC [A24T C26A] | 0.00282
25 | GAGACCGCAACTGAAAAGTTGTTTTGAGAAATGGATGGGTTGAATTTCTGCACGTAGAAGCAAAAGGC [A24T C26G] | 0.0102
26 | GAGACCGCAACTGAAAAGTTGTTTTTAGAAATGGATGGGTTGAATTTCTGCACGTAGAAGCAAAAGGC [A24T C26T] | 0.0111
27 | GAGACCGCAACTGAAAAGTTGTTTTCAGAAGTGGATGGGTTGAATTTCTGCACGTAGAAGCAAAAGGC [A24T A31G] | 0.00616
28 | GAGACCGCAACTGAAAAGTTGTTTTCAGAACTGGATGGGTTGAATTTCTGCACGTAGAAGCAAAAGGC [A24T A31C] | 0.00611
29 | GAGACCGCAACTGAAAAGTTGTTTTCAGAATTGGATGGGTTGAATTTCTGCACGTAGAAGCAAAAGGC [A24T A31T] | 0.00682
30 | GAGACCGCAACTGAAAAGTTGTTTTCAGGAATGGATGGGTTGAATTTCTGCACGTAGAAGCAAAAGGC [A24T A29G] | 0.00599
31 | GAGACCGCAACTGAAAAGTTGTTTTCAGTAATGGATGGGTTGAATTTCTGCACGTAGAAGCAAAAGGC [A24T A29T] | 0.0058
32 | GAGACCGCAACTGAAAAGTTGTTTTCAGAAATGTATGGGTTGAATTTCTGCACGTAGAAGCAAAAGGC [A24T G34T] | 0.00322
33 | GAGACCGCAACTGAAAAGTTGTTTTCAGAAATGCATGGGTTGAATTTCTGCACGTAGAAGCAAAAGGC [A24T G34C] | 0.00388
34 | GAGACCGCAACTGAAAAGTTGTTTTCAGAAATGAATGGGTTGAATTTCTGCACGTAGAAGCAAAAGGC [A24T G34A] | 0.0316
35 | GAGACCGCAACTGAAAAGTTGTTTTCATAAATGGATGGGTTGAATTTCTGCACGTAGAAGCAAAAGGC [A24T G28T] | 0.0703
36 | GAGACCGCAACTGAAAAGTTGTTTTCACAAATGGATGGGTTGAATTTCTGCACGTAGAAGCAAAAGGC [A24T G28C] | 0.0438
37 | GAGACCGCAACTGAAAAGTTGTTTTCAAAAATGGATGGGTTGAATTTCTGCACGTAGAAGCAAAAGGC [A24T G28A] | 0.0366
38 | GAGACCGCAACTGAAAAGTTGTTTTCAGAAATAGATGGGTTGAATTTCTGCACGTAGAAGCAAAAGGC [A24T G33A] | 0.0223
39 | GAGACCGCAACTGAAAAGTTGTTTTCAGAAATTGATGGGTTGAATTTCTGCACGTAGAAGCAAAAGGC [A24T G33T] | 0.0124
40 | GAGACCGCAACTGAAAAGTTGTTTTCAGAAATCGATGGGTTGAATTTCTGCACGTAGAAGCAAAAGGC [A24T G33C] | 0.00781

Reference: the supplement of paper PMC6755084
